# Laboratory results as given in patent US20240101667A1, “METHODS FOR IDENTIFYING LILRB-BLOCKING ANTIBODIES” (THE BOARD OF REGENTS OF THE UNIVERSITY OF TEXAS SYSTEM, priority 2020, published 2024).
# B1: anti-LILRB3 #1 N297A: IgG #1 with Fc glycosylation N297A mutation, defective Fc-mediated effector functions (antibody, V domains shown)
# VH: EVQLVESGGGVVQPGRSLRLSCAASGFTFSSYGMHWVRQAPGKGLEWVAFIRYDGSNKYYADSVKGRFTISRDNSKNTLYLQMNSLRAEDTAVYYCAKAGFSGWYYYGMDVWGQGTMVTVSS
# VL: DIVMTQSPSSLSASVGDRLTITCRASQSISTYLNWYQQKPGKAPKLLIYGASSLQSGVPSRFSGSGSGTDFTLTISSLQPEDFATYFCQQSYGLPLTFGGGTKVDIK
# Tests used:
# MLL-AF9 AML cells = test: CFU assay of mouse MLL-AF9 AML cells; assay type: cell-based
# Description: (§1) FIGS. 7A-N. Blocking anti-LILRB3 antibody prevents monocytic AML development. (FIG. 7A) Epitope binning of 30 high-affinity IgGs. (FIG. 7B) CFU assay of mouse MLL-AF9 AML cells in the presence of above IgGs (n=3 independent experiments). (FIG. 7C) Binding affinities of the two IgGs from bin #3. (FIG. 7D) Upper: Schematic of treatment. Lower: Percentages of GFP^+ MLL-AF9 mouse AIL cells in peripheral blood (PB), bone marrow (BM), spleen (SPL), and liver (LV) of mice transplanted with AML cells expressing B3-FL or B3delICD and injected with IgG or anti-LILRB3 #1 N297A (n=3 independent mice). (FIG. 7E) Overall survival of mice transplanted with indicated AML cells as above. (FIG. 7F) CFU assay of MLL-AF9 mouse AML cells expressing B3-FL or B3delICD in the presence of IgG or anti-LILRB3 #1 N297A (n=3 independent experiments) (FIG. 7G) Upper: Schematic of treatment. Recipient mice were injected with mouse IgG or anti-mCD8 to deplete CD8 T cells. Lower: Percentages of GFP^+ MLL-AF9 mouse AML cells in peripheral blood (PB), bone marrow (BM), spleen (SPL), and liver (LV) of mice transplanted with AML cells expressing B3-FL or B3delICD and injected with IgG or anti-LILRB3 #1 LALAPG (n=4 mice). (FIG. 7H) Survival of mice as in panel h (n=4 independent mice). (FIG. 7I) Upper: Schematic of treatment. Lower: Whole-body images of NSG mice transplanted with luciferase-expressing THP-1 cells and treated with IgG or anti-LILRB3 #1 N297A (#1NA). (FIG. 7J) Overall survival of the mice shown in panel h (n=3 independent mice). (FIG. 7K) Upper: Schematic of treatment. Lower: Whole-body images of NSG mice transplanted with luciferase-expressing Molm13 cells, injected with activated T cells, and treated with IgG or #1NA. (FIG. 7L) Luciferase signaling as a function of time in mice treated as described in panel k. (FIG. 7M) Overall survival of mice treated as described in panel k (n=3 independent mice). (FIG. 7N) Analyses of T cells in peripheral blood of mice treated as described in panel 1 at 22 days after Molm13 AML cell transplantation. Upper: Flow cytometry analyses. Lower: Plot of T cell percentages (n=3 independent mice). The data are presented as mean±s.e.m, and p values were calculated by two-tailed t-test except for FIG. 7E, FIG. 7H, FIG. 7J and FIG. 7M by log-rank test.
# FIGS. S6A-J. Development of anti-LILRB3 blocking antibodies for suppressing AML development. (FIG. S6a) Upper: Flow chart of strategy for development of fully humanized antibodies against LILRB3. Lower: The identified antibodies were tested in the LILRB3 chimeric receptor reporter cell assay. (FIG. S6b) ELISA results for LILRB3 binders. (FIG. S6c) EC50 values of the anti-LILRB3 antibodies based on ELISA. (FIG. S6d) Affinities of antibodies #32, #33, #67, and #45 to LILRB3 as determined by Octet. (FIG. S6e) Cross-reactivity of the anti-LILRB3 antibodies with LILRAs evaluated with LILRA binding analyses. (FIG. S6f) Cross-reactivity of the anti-LILRB3 antibodies with other LILRBs evaluated with LILRB binding analyses. (FIG. S6g) Interaction with TRAF2 contributes to the effect of LILRB3 on AML development. […] (FIG. S6j) NF-κB signaling target gene expression (measured by qPCR) in THP-1 cells from BM of xenografted NSG mice treated with anti-LILRB3 #1NA or IgG (n=3 individual samples). […]
# [1] = tested on: MLL-AF9 AML cells expressing B3-FL or B3delICD; test: Immuno-competent mice transplanted with MLL-AF9 AML cells expressing B3-FL or B3delICD; assay type: in vivo, mouse; conditions: versus control IgG
# Description: as §1, with “(FIG. 7N) Analyses of T cells in peripheral blood of mice treated as described in panel 1 at 22 days after Molm13 AML cell transplantation. Upper: Flow cytometry analyses. Lower: Plot of T cell percentages (n=3 independent mice).” left out, “test. […]” for “test.”
molecule,measurement,setting,value
B1,CFU formation of AML cells expressing mutant LILRB3 that cannot interact with TRAF2,MLL-AF9 AML cells; AAA mutant (QEE509-511AAA),did not decrease CFU formation
same,CFU formation by B3-FL AML cells,MLL-AF9 AML cells; versus IgG,decreased CFU formation
same,B3del ICD AML development,[1],no detectable difference
same,development of LILRB3-expressing (B3-FL) AML,[1],significantly delayed development of LILRB3-expressing AML
